Sequences and labels used below:
B1: YFP-RepoMan-wt [not stated] / endogenous PP2A-B56γ [human (endogenous in HeLa)] (parent)
chain 1: MDANSKDKPPETKESAMNNAGNASFILGTGKIVTPQKHAELPPNPCTPDTFKSPLNFSTVTVEQLGITPESFVRNSAGKSSSYLKKCRRRSAVGARGSPETNHLIRFIARQQNIKNARKSPLAQDSPSQGSPALYRNVNTLRERISAFQSAFHSIKENEKMTGCLEFSEAGKESEMTDLTRKEGLSACQQSGFPAVLSSKRRRISYQRDSDENLTDAEGKVIGLQIFNIDTDRACAVETSVDLSEISSKLGSTQSGFLVEESLPLSELTETSNALKVADCVVGKGSSDAVSPDTFTAEVSSDAVPDVRSPATPACRRDLPTPKTFVLRSVLKKPSVKMCLESLQEHCNNLYDDDGTHPSLISNLPNCCKEKEAEDEENFEAPAFLNMRKRKRVTFGEDLSPEVFDESLPANTPLRKGGTPVCKKDFSGLSSLLLEQSPVPEPLPQPDFDDKGENLENIEPLQVSFAVLSSPNKSSISETLSGTDTFSSSNNHEKISSPKVGRITRTSNRRNQLVSVVEESVCNLLNTEVQPCKEKKINRRKSQETKCTKRALPKKSQVLKSCRKKKGKGKKSVQKSLYGERDIASKKPLLSPIPELPEVPEMTPSIPSIRRLGSGYFSSNGKLEEVKTPKNPVKRKDLLRHDPDLHMHQGYDKYDVSEFCSYIKSSSSLGNATSDEDPNTNIMNINENKNIPKAKNKSESENEPKAGTDSPVSCASVTEERVASDSPKPALTLQQGQEFSAGGQNAENLCQFFKISPDLNIKCERKDDFLGAAEGKLQCNRLMPNSQKDCHCLGDVLIENTKESKSQSEDLGRKPMESSSVVSCRDRKDRRRSMCYSDGRSLHLEKNGNHTPSSSVGSSVEISLENSELFKDLSDAIEQTFQRRNSETKVRRSTRLQKDLENEGLVWISLPLPSTSQKAKRRTICTFDSSGFESMSPIKETVSSRQKPQMAPPVSDPENSQGPAAGSSDEPGKRRKSFCISTLANTKATSQFKGYRRRSSLNGKGESSLTALERIEHNGERKQ
chain 2: not shown

The first experiment covers variants of B1. Nature of the experiment: proximity ligation assay (PLA). The conditions noted are these: with endogenous PP2A-B56γ [human (endogenous in HeLa)]; asynchronous; endogenous RepoMan knocked down using siRM; Anti-GFP+B56γ antibodies; median shown in red; read off a plot.
chain 1 P604A: the response (PLA foci per cell) is 10.

The experiment is the same for the next values; noted with them: with endogenous PP2A-B56γ [human (endogenous in HeLa)]; monastrol arrested; endogenous RepoMan knocked down using siRM; Anti-GFP+B56γ antibodies; median shown in red; read off a plot.
chain 1 P604A: the response (PLA foci per cell) came out at 19.

The variants in another experiment derive from B1. Briefly: immunofluorescence, dCas9-DARPin recruitment to ectopic foci on chr 1. The conditions noted are these: with mCherry-B56γ; prometaphase-arrested cells; average of 3 independent experiments, 58 (wt) 60 (P604A) cells; read off a plot.
Turning to chain 1 P604A, the response is 0.45.

The values above are taken from article PMC13299607.
